From publication PMC7094341

Assays:
[1] = target: SARS-CoV papain-like protease (PLpro), trypsin-trimmed product of P-PLpro(C2)-His6 (SARS-CoV)
[2] = target: SARS-CoV papain-like protease (PLpro), trypsin-trimmed product of P-PLpro(C2)-His6 (SARS-CoV); remark: listed apart in the source

Chain of ISG15(C)-AMC (P05161 82-157): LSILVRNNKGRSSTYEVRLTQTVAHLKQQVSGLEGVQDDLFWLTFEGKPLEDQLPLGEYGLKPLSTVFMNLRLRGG

Substance	kcat/KM of hydrolysis of ISG15(C)-AMC by PLpro (fluorescence, pH 7.8, 25 °C) [1]	kcat/KM of hydrolysis of Ub-AMC by PLpro (fluorescence, pH 7.8, 25 °C) [2]
ISG15(C)-AMC (from UniProt P05161 82-157) (domain or fragment)	94000 M⁻¹ s⁻¹	–
Ub-7-amino-4-methylcoumarin	–	19800 M⁻¹ s⁻¹
